# Results: publication PMC12751603 (Journal of Experimental & Clinical Cancer Research : CR, 2025)
# Non-standard residues stand in square brackets, D forms with d. No end group written: not given here. pY = N[C@@H](Cc1ccc(OP(=O)(O)O)cc1)C(=O)O
# T1: GST-PTPN9 Y333A (UniProt P43378 1-593, Y333A)
# T1 sequence (looked up): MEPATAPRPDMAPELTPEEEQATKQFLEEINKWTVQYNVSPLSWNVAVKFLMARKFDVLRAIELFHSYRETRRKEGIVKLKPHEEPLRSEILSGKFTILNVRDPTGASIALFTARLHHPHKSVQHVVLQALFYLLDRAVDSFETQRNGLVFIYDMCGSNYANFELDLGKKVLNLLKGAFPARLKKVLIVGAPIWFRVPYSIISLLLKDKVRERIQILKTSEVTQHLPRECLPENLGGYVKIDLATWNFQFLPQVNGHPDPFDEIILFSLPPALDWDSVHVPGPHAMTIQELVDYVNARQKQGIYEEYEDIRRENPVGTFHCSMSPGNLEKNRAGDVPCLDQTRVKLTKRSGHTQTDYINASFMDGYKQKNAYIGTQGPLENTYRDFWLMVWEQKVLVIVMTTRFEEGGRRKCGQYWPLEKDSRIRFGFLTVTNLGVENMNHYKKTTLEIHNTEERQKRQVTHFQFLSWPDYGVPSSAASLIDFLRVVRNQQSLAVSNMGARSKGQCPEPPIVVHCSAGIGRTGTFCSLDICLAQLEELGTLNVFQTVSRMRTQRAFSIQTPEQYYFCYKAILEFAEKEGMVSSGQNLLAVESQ
# T2: GST-PTPN9 D335A (UniProt P43378 1-593, D335A)
# T2 sequence (looked up): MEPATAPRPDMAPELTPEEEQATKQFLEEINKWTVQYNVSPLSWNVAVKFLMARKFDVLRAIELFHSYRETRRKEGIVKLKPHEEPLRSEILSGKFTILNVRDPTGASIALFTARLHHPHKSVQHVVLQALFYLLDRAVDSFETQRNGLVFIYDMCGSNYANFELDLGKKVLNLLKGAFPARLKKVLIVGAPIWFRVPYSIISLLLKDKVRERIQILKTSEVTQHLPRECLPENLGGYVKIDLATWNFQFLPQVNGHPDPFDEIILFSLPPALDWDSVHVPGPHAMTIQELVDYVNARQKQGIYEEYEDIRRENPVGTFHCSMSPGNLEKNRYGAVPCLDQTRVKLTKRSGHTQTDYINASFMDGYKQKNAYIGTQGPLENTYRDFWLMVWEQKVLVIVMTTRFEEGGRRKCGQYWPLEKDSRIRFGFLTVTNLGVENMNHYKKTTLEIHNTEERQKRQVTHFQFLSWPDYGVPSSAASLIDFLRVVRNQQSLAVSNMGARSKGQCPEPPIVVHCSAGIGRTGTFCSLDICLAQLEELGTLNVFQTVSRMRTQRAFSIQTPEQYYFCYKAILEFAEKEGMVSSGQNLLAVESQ
# Legend:
# GST-PTPN9 Y333A = biological target: T1, GST-PTPN9 Y333A; test: cell-based or functional assay
# GST-PTPN9 D335A = biological target: T2, GST-PTPN9 D335A; test: cell-based or functional assay
binder,measurement,setting,value
IYETD[pY][pY]RKGGK [p-IGF1R^Y1165/1166 peptide],Kcat of phosphatase activity against the p-IGF1R^Y1165/1166 peptide,GST-PTPN9 Y333A,3.42 s⁻¹
same,Kcat of phosphatase activity against the p-IGF1R^Y1165/1166 peptide,GST-PTPN9 D335A,1.78 s⁻¹
